For two molecules, pKd results are on record in publication PMC9482650, “Quantitative fragmentomics allow affinity mapping of interactomes” (Nature Communications, 2022).

First the molecules themselves.
T1: MPDZ_12, O75970
T1 sequence (O75970 1857-1958, limits assumed, looked up): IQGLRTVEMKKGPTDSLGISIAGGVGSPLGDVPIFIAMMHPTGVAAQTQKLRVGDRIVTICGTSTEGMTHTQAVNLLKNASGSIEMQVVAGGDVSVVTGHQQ

T2: PDZD7_1, Q9H5P4
T2 sequence (Q9H5P4 81-178, limits assumed, looked up): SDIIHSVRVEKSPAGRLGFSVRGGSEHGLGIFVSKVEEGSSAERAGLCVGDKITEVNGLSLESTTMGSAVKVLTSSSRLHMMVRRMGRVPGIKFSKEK

T3: MAGI2_1, Q86UL8
T3 sequence (Q86UL8 12-111, limits assumed, looked up): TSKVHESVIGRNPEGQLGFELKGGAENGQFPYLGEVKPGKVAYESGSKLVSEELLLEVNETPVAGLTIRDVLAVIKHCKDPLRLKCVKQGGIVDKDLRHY

T4: INTU, Q9ULD6
T4 sequence (Q9ULD6 180-273, limits assumed, looked up): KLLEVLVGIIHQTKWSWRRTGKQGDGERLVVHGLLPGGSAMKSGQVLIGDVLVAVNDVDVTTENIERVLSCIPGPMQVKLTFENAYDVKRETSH

T5: SHROOM3, Q8TF72
T5 sequence (Q8TF72 20-120, limits assumed, looked up): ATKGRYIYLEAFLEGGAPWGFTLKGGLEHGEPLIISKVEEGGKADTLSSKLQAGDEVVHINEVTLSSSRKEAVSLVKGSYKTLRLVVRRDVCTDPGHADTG

T6: MPP5, Q8N3R9
T6 sequence (Q8N3R9 251-346, limits assumed, looked up): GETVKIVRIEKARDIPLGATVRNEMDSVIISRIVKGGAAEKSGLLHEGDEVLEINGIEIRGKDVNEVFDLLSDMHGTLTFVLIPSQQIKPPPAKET

T7: RGS12, O14924
T7 sequence (O14924 17-108, limits assumed, looked up): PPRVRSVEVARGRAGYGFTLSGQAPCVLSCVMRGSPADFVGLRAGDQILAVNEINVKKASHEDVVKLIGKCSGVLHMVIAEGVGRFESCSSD

T8: PCLO, Q9Y6V0
T8 sequence (Q9Y6V0 4491-4600, limits assumed, looked up): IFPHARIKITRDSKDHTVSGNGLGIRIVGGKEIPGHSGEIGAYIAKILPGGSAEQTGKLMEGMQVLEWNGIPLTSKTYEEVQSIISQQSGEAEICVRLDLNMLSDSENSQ

T9: SHANK2, Q9UPX8
T9 sequence (Q9UPX8 621-730, limits assumed, looked up): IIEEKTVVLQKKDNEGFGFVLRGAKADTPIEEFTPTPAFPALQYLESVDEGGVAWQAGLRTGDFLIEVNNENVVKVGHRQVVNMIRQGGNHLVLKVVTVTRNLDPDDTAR

T10: SHROOM4, Q9ULL8
T10 sequence (Q9ULL8 5-102, limits assumed, looked up): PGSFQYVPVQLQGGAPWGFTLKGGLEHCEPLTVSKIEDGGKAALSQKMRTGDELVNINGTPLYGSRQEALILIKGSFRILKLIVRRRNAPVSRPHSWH

T11: MPDZ_2, O75970
T11 sequence (O75970 252-347, limits assumed, looked up): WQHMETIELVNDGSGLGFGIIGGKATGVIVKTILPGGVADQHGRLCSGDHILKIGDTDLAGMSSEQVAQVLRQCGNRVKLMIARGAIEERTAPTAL

T12: DVL1, O14640
T12 sequence (O14640 246-333, limits assumed, looked up): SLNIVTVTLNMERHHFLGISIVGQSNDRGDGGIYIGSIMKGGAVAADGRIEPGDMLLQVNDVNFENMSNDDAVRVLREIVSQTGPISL

B1: HPV59-E6, Q81964 (peptide)
chain: QRQARSETLV
B2: HPV73-E6, Q82005 (peptide)
chain: SGSRPSATVV

For orientation: pKd means the Kd on a negative log10 scale, so that one unit is a factor of ten.

Chain of NHERF4_3, Q86UT5 (Q86UT5 325-412): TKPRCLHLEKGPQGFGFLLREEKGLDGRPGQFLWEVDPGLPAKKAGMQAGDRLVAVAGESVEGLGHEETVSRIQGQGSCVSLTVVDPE
Chain of MAST3, O60307 (O60307 945-1048): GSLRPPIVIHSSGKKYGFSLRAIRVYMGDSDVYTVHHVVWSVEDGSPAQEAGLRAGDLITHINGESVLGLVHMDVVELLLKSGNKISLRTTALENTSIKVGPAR
Chain of GRIP2_2, Q9C0E4 (Q9C0E4 137-245): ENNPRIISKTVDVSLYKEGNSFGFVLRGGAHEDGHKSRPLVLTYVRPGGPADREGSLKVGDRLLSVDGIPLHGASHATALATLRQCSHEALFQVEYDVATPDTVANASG

The first test concerns the target MAST3, O60307. The experiment in a line: holdup assay. On the set-up: key: below the threshold = too weak to quantify, mostly under pKd 3.1 to 4. The note with it: plain residues with an end cap or a label only (N-terminal biotin on a linker: ttds).
In the case of B1, the pKd entry is reported as “below the threshold”.

On to B2, for which the pKd entry was “below the threshold”.

Another test addresses T1, MPDZ_12, O75970. Put plainly: holdup assay. On the set-up: key: below the threshold = too weak to quantify, mostly under pKd 3.1 to 4. To be noted: plain residues with an end cap or a label only (N-terminal biotin on a linker: ttds).
Take B1: the pKd result is “below the threshold”.

Turning to B2, the pKd result is on record as “below the threshold”.

A further test concerns the target T2, PDZD7_1, Q9H5P4. Put plainly: holdup assay. On the set-up: key: below the threshold = too weak to quantify, mostly under pKd 3.1 to 4. The note with it: plain residues with an end cap or a label only (N-terminal biotin on a linker: ttds).
Regarding B1, the pKd entry is on record as “below the threshold”.

On to B2, for which the pKd result is given as “below the threshold”.

In a further test the target is PARD3_1, Q8TEW0. Put plainly: holdup assay. On the set-up: key: below the threshold = too weak to quantify, mostly under pKd 3.1 to 4. The note with it: plain residues with an end cap or a label only (N-terminal biotin on a linker: ttds).
Chain of PARD3_1, Q8TEW0 (Q8TEW0 264-372): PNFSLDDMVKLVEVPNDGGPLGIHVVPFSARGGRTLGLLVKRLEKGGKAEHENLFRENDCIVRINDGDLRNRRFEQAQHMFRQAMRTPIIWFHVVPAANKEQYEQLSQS
B1: the negative logarithm of the Kd (pKd) result is reported as “below the threshold”.

Take B2: the pKd entry is on record as “below the threshold”.

For the next test, the target named is T3, MAGI2_1, Q86UL8. The experiment in a line: holdup assay. Details: key: below the threshold = too weak to quantify, mostly under pKd 3.1 to 4. To be noted: plain residues with an end cap or a label only (N-terminal biotin on a linker: ttds).
In the case of B1, the pKd result is “below the threshold”.

As for B2, the pKd result was “below the threshold”.

For a further test, the target named is T4, INTU, Q9ULD6. The experiment in a line: holdup assay. Details: key: below the threshold = too weak to quantify, mostly under pKd 3.1 to 4. To be noted: plain residues with an end cap or a label only (N-terminal biotin on a linker: ttds).
As to B1, the pKd entry is recorded as “below the threshold”.

B2 had a negative-log Kd (pKd) of 4.58.

In another test the target is TJP1_3, Q07157. The experiment in a line: holdup assay. Details: key: below the threshold = too weak to quantify, mostly under pKd 3.1 to 4. The note with it: plain residues with an end cap or a label only (N-terminal biotin on a linker: ttds).
Chain of TJP1_3, Q07157 (Q07157 416-512): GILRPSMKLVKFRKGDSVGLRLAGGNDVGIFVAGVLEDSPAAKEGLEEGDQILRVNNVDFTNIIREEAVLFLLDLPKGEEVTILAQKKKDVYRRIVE
For B1, the pKd entry was “below the threshold”.

Turning to B2, the negative logarithm of the Kd (pKd) result is reported as “below the threshold”.

The target in a further test is Inadl_7, Q8NI35. The experiment in a line: holdup assay. Details: key: below the threshold = too weak to quantify, mostly under pKd 3.1 to 4. To be noted: plain residues with an end cap or a label only (N-terminal biotin on a linker: ttds).
Chain of Inadl_7, Q8NI35 (Q8NI35 1219-1332): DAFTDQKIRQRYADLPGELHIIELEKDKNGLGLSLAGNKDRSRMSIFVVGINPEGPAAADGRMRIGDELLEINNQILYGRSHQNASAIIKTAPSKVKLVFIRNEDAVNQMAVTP
As to B1, the negative-log Kd (pKd) entry was “below the threshold”.

For B2, the pKd entry is listed as “below the threshold”.

A further test has as its target GRIP2_2, Q9C0E4. Put plainly: holdup assay. The note with it: plain residues with an end cap or a label only (N-terminal biotin on a linker: ttds). On the set-up: key: below the threshold = too weak to quantify, mostly under pKd 3.1 to 4.
As for B1, the pKd entry is reported as “below the threshold”.

For the molecule B2, the pKd entry is given as “below the threshold”.

For a further test, the target named is PDZD9, Q8IXQ8. Put plainly: holdup assay. Details: key: below the threshold = too weak to quantify, mostly under pKd 3.1 to 4. To be noted: plain residues with an end cap or a label only (N-terminal biotin on a linker: ttds).
Chain of PDZD9, Q8IXQ8 (Q8IXQ8 23-120): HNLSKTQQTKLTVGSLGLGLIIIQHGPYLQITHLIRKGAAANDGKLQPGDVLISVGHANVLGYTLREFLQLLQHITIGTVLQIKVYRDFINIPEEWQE
As for B1, the pKd result is listed as “below the threshold”.

B2: the pKd entry is given as “below the threshold”.

For the next test, the target named is T5, SHROOM3, Q8TF72. Put plainly: holdup assay. Details: key: below the threshold = too weak to quantify, mostly under pKd 3.1 to 4. To be noted: plain residues with an end cap or a label only (N-terminal biotin on a linker: ttds).
B1: the pKd entry is given as “below the threshold”.

For the molecule B2, the pKd entry was “below the threshold”.

In a further test the target is T6, MPP5, Q8N3R9. The experiment in a line: holdup assay. On the set-up: key: below the threshold = too weak to quantify, mostly under pKd 3.1 to 4. To be noted: plain residues with an end cap or a label only (N-terminal biotin on a linker: ttds).
As to B1, the pKd result is “below the threshold”.

Turning to B2, the pKd result was “below the threshold”.

The target in the next test is LIMK1, P53667. The experiment in a line: holdup assay. Details: key: below the threshold = too weak to quantify, mostly under pKd 3.1 to 4. The note with it: plain residues with an end cap or a label only (N-terminal biotin on a linker: ttds).
Chain of LIMK1, P53667 (P53667 155-268): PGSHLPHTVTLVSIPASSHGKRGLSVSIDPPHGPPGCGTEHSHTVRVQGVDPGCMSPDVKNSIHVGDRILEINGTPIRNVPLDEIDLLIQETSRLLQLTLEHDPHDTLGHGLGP
Regarding B1, the negative logarithm of the Kd (pKd) entry is “below the threshold”.

Turning to B2, the pKd entry is “below the threshold”.

For a further test, the target named is T7, RGS12, O14924. The experiment in a line: holdup assay. On the set-up: key: below the threshold = too weak to quantify, mostly under pKd 3.1 to 4. To be noted: plain residues with an end cap or a label only (N-terminal biotin on a linker: ttds).
Regarding B1, the pKd entry was “below the threshold”.

On to B2, for which the pKd entry is listed as “below the threshold”.

The target of the next test is T8, PCLO, Q9Y6V0. The experiment in a line: holdup assay. On the set-up: key: below the threshold = too weak to quantify, mostly under pKd 3.1 to 4. To be noted: plain residues with an end cap or a label only (N-terminal biotin on a linker: ttds).
With B1, the pKd entry is on record as “below the threshold”.

Regarding B2, the pKd entry was “below the threshold”.

Another test has as its target T9, SHANK2, Q9UPX8. Put plainly: holdup assay. Details: key: below the threshold = too weak to quantify, mostly under pKd 3.1 to 4. To be noted: plain residues with an end cap or a label only (N-terminal biotin on a linker: ttds).
For the molecule B1, the pKd is 4.47.

For B2, the pKd result is given as “below the threshold”.

Another test concerns the target T10, SHROOM4, Q9ULL8. Put plainly: holdup assay. On the set-up: key: below the threshold = too weak to quantify, mostly under pKd 3.1 to 4. To be noted: plain residues with an end cap or a label only (N-terminal biotin on a linker: ttds).
Consider B1, for which the pKd entry is on record as “below the threshold”.

As for B2, the negative-log Kd (pKd) entry was “below the threshold”.

The target in another test is T11, MPDZ_2, O75970. Put plainly: holdup assay. On the set-up: key: below the threshold = too weak to quantify, mostly under pKd 3.1 to 4. The note with it: plain residues with an end cap or a label only (N-terminal biotin on a linker: ttds).
Take B1: the pKd entry is listed as “below the threshold”.

A further test has as its target NHERF4_3, Q86UT5. The experiment in a line: holdup assay. Details: key: below the threshold = too weak to quantify, mostly under pKd 3.1 to 4. To be noted: plain residues with an end cap or a label only (N-terminal biotin on a linker: ttds).
As for B1, the negative-log Kd (pKd) came to 4.28.

Consider B2, for which the pKd entry was “below the threshold”.

The target of a further test is MAGI3_5, Q5TCQ9. The experiment in a line: holdup assay. Details: key: below the threshold = too weak to quantify, mostly under pKd 3.1 to 4. The note with it: plain residues with an end cap or a label only (N-terminal biotin on a linker: ttds).
Chain of MAGI3_5, Q5TCQ9 (Q5TCQ9 847-941): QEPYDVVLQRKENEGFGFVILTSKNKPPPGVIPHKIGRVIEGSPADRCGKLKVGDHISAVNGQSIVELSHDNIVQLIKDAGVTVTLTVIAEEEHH
For the molecule B1, the pKd came out at 4.62.

Turning to B2, the pKd entry is reported as “below the threshold”.

In another test the target is MAGI3_3, Q5TCQ9. Put plainly: holdup assay. Details: key: below the threshold = too weak to quantify, mostly under pKd 3.1 to 4. To be noted: plain residues with an end cap or a label only (N-terminal biotin on a linker: ttds).
Chain of MAGI3_3, Q5TCQ9 (Q5TCQ9 572-655): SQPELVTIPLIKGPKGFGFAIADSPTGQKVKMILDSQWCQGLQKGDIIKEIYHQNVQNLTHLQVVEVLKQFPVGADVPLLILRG
For the molecule B1, the pKd entry is recorded as “below the threshold”.

Consider B2, for which the negative logarithm of the Kd (pKd) result is “below the threshold”.

In the next test the target is SCRIB_4, Q14160. Put plainly: holdup assay. On the set-up: key: below the threshold = too weak to quantify, mostly under pKd 3.1 to 4. To be noted: plain residues with an end cap or a label only (N-terminal biotin on a linker: ttds).
Chain of SCRIB_4, Q14160 (Q14160 1095-1204): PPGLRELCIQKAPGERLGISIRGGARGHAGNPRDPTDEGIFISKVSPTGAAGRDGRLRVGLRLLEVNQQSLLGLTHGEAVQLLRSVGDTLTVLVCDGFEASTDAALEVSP
On to B1, for which the pKd result is listed as “below the threshold”.

With B2, the pKd result was “below the threshold”.

In a further test the target is T12, DVL1, O14640. The experiment in a line: holdup assay. The note with it: plain residues with an end cap or a label only (N-terminal biotin on a linker: ttds). On the set-up: key: below the threshold = too weak to quantify, mostly under pKd 3.1 to 4.
Regarding B1, the pKd entry is on record as “below the threshold”.

B2 gave a pKd of 4.36.

In a further test the target is RGS3, P49796-9. The experiment in a line: holdup assay. On the set-up: key: below the threshold = too weak to quantify, mostly under pKd 3.1 to 4. To be noted: plain residues with an end cap or a label only (N-terminal biotin on a linker: ttds).
Chain of RGS3, P49796-9 (P49796 other isoform, or with tags, fused parts or gaps): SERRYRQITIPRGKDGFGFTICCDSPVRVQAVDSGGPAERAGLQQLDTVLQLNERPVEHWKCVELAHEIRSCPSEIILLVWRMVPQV
B1: the pKd entry was “below the threshold”.

As for B2, the pKd entry is reported as “below the threshold”.
